Measured values from publication PMC3326311 (Nucleic Acids Research, 2011).

B1: HerA helicase (Sulfolobus solfataricus), untagged (enzyme, Sulfolobus solfataricus P2, UniProt Q97WG8 1-500, looked up)
chain: MIIGYVIGQATTQEALILAERPVRLGTYVVLEYDNVKALGLITNVTRGSPMLDDNMNDIEIVQRLKQFNNSIPVYTKAKVKMLCDMNNHFLMPDIPPFAGTPAREAEDEELKSIYSQDGQIRIGSLIGKNVEVKLNINSFARHLAILAATGSGKSNTVAVLSQRISELGGSVLIFDYHGEYYDSDIKNLNRIEPKLNPLYMTPREFSTLLEIRENAIIQYRILRRAFIKVTNGIREKLKEGQIPFSTLNSQFYELMKDELETQGNSDKKSSAKDEVLNKFEEFMDRYSNVIDLTSSDIIEKVKRGKVNVVSLTQLDEDSMDAVVSHYLRRILDSRKDFKRSKNSGLKFPIIAVIEEAHVFLSKNENTLTKYWASRIAREGRKFGVGLTIVSQRPKGLDENILSQMTNKIILKIIEPTDKKYILESSDNLSEDLAEQLSSLDVGEAIIIGKIVKLPAVVKIDMFEGKLLGSDPDMIGEWKKVEESEKIAKGFADFGTEIGD

Experiments:
[1] = biological target: the molecule itself; test: crystal structure
[2] = biological target: the molecule itself; test: SEC
[3] = biological target: B1; test: SEC

Row | Binder | stoichiometry N [2] | further results
1 | NurA nuclease (Sulfolobus solfataricus), untagged (enzyme, Sulfolobus solfataricus P2) MIRKIYDKLVESHNEIKNQIYNIANYLKQEIQDKVNEYWNEYVINHEQSETCKFVAIDGGSFGRPMRIGIVYAVGAESVIGDNKGVKTLSEDGQIGIFKPGNDAQERISLLMEALELSLALRDGSKGDYILMDGSLSKKIGNKVDIQQFSDEELKLIRNVDLNGIISIKDERKMRDLLMLLNQFLVSKIIEEYDGNVLWISKVSRGRDLFGTDYPDITVLELFTEKRGFSKLIIKNIDIEKISEIPEIEVLRKMEYTTFYTRLDNGKRVIRVDIVGRVDEKIVKEIMDRLSGVSIKGYPFPLLKAHMDVRFSAMDREKIIKLVGSKLHKDIEWWPSQFY |  | stoichiometry N [1]: 2
2 | NurA F300E (enzyme, Sulfolobus solfataricus P2) MIRKIYDKLVESHNEIKNQIYNIANYLKQEIQDKVNEYWNEYVINHEQSETCKFVAIDGGSFGRPMRIGIVYAVGAESVIGDNKGVKTLSEDGQIGIFKPGNDAQERISLLMEALELSLALRDGSKGDYILMDGSLSKKIGNKVDIQQFSDEELKLIRNVDLNGIISIKDERKMRDLLMLLNQFLVSKIIEEYDGNVLWISKVSRGRDLFGTDYPDITVLELFTEKRGFSKLIIKNIDIEKISEIPEIEVLRKMEYTTFYTRLDNGKRVIRVDIVGRVDEKIVKEIMDRLSGVSIKGYPEPLLKAHMDVRFSAMDREKIIKLVGSKLHKDIEWWPSQFY | 2 | 
3 | NurA I295E/F300E double mutant (enzyme, Sulfolobus solfataricus P2) MIRKIYDKLVESHNEIKNQIYNIANYLKQEIQDKVNEYWNEYVINHEQSETCKFVAIDGGSFGRPMRIGIVYAVGAESVIGDNKGVKTLSEDGQIGIFKPGNDAQERISLLMEALELSLALRDGSKGDYILMDGSLSKKIGNKVDIQQFSDEELKLIRNVDLNGIISIKDERKMRDLLMLLNQFLVSKIIEEYDGNVLWISKVSRGRDLFGTDYPDITVLELFTEKRGFSKLIIKNIDIEKISEIPEIEVLRKMEYTTFYTRLDNGKRVIRVDIVGRVDEKIVKEIMDRLSGVSEKGYPEPLLKAHMDVRFSAMDREKIIKLVGSKLHKDIEWWPSQFY | 2 | 
4 | NurA I295E (enzyme, Sulfolobus solfataricus P2) MIRKIYDKLVESHNEIKNQIYNIANYLKQEIQDKVNEYWNEYVINHEQSETCKFVAIDGGSFGRPMRIGIVYAVGAESVIGDNKGVKTLSEDGQIGIFKPGNDAQERISLLMEALELSLALRDGSKGDYILMDGSLSKKIGNKVDIQQFSDEELKLIRNVDLNGIISIKDERKMRDLLMLLNQFLVSKIIEEYDGNVLWISKVSRGRDLFGTDYPDITVLELFTEKRGFSKLIIKNIDIEKISEIPEIEVLRKMEYTTFYTRLDNGKRVIRVDIVGRVDEKIVKEIMDRLSGVSEKGYPFPLLKAHMDVRFSAMDREKIIKLVGSKLHKDIEWWPSQFY | 2 | 
5 | NurA K202A (enzyme, Sulfolobus solfataricus P2) MIRKIYDKLVESHNEIKNQIYNIANYLKQEIQDKVNEYWNEYVINHEQSETCKFVAIDGGSFGRPMRIGIVYAVGAESVIGDNKGVKTLSEDGQIGIFKPGNDAQERISLLMEALELSLALRDGSKGDYILMDGSLSKKIGNKVDIQQFSDEELKLIRNVDLNGIISIKDERKMRDLLMLLNQFLVSKIIEEYDGNVLWISAVSRGRDLFGTDYPDITVLELFTEKRGFSKLIIKNIDIEKISEIPEIEVLRKMEYTTFYTRLDNGKRVIRVDIVGRVDEKIVKEIMDRLSGVSIKGYPFPLLKAHMDVRFSAMDREKIIKLVGSKLHKDIEWWPSQFY |  | binding result [3]: binds
6 | B1 | 6 | 
